The values below come from IntAct's records for PubMed 24286120.

First the molecules themselves.
B1: Malignant fibrous histiocytoma-amplified sequence 1 (Homo sapiens), Q9Y4C4 (parent)
chain: MAGMDSGNLKTARLWRDAALRARKLRSNLRQLTLTAAGACPGAGADALESPASPQLVLPANLGDIEALNLGNNGLEEVPEGLGSALGSLRVLVLRRNRFARLPPAVAELGHHLTELDVSHNRLTALGAEVVSALRELRKLNLSHNQLPALPAQLGALAHLEELDVSFNRLAHLPDSLSCLSRLRTLDVDHNQLTAFPRQLLQLVALEELDVSSNRLRGLPEDISALRALKILWLSGAELGTLPAGFCELASLESLMLDNNGLQALPAQFSCLQRLKMLNLSSNLFEEFPAALLPLAGLEELYLSRNQLTSVPSLISGLGRLLTLWLDNNRIRYLPDSIVELTGLEELVLQGNQIAVLPDHFGQLSRVGLWKIKDNPLIQPPYEVCMKGIPYIAAYQKELAHSQPAVQPRLKLLLMGHKAAGKTLLRHCLTEERVEGCPGGGDKEKCYPPSPPPVSKGIEVTSWTADASRGLRFIVYDLAGDESYEVIQPFFLSPGALYVLVVNLATYEPRHFPTTVGSFLHRVGARVPHAVVCIVGTHADLCGERELEEKCLDIHRQIALQEKHDAEGLSRLAKVVDEALARDFELRSASPHAAYYGVSDKNLRRRKAHFQYLLNHRLQILSPVLPVSCRDPRHLRRLRDKLLSVAEHREIFPNLHRVLPRSWQVLEELHFQPPQAQRLWLSWWDSARLGLQAGLTEDRLQSALSYLHESGKLLYFEDSPALKEHVFHNLTRLIDILNVFFQRDPSLLLHKLLLGTSGEGKAEGESSPPMARSTPSQELLRATQLHQYVEGFLLHGLLPAHVIRLLLKPHVQAQQDLQLLLELLEKMGLCYCLNKPKGKPLNGSTAWYKFPCYVQNEVPHAEAWINGTNLAGQSFVAEQLQIEYSFPFTFPLGLFARYSVQINSHVVHRSDGKFQIFAYRGKVPVVVSYRPARGVLQPDTLSIASHASLPNIWTAWQAITPLVEELNVLLQEWPGLHYTVHILCSKCLKRGSPNPHAFPGELLSQPRPEGVAEIICPKNGSERVNVALVYPPTPTVISPCSKKNVGEKHRNQ

Variants of B1 are the subject of the experiment. The settings on record: with ch60_human HSPD1, P10809.
Sequence of ch60_human HSPD1, P10809 (P10809 whole entry): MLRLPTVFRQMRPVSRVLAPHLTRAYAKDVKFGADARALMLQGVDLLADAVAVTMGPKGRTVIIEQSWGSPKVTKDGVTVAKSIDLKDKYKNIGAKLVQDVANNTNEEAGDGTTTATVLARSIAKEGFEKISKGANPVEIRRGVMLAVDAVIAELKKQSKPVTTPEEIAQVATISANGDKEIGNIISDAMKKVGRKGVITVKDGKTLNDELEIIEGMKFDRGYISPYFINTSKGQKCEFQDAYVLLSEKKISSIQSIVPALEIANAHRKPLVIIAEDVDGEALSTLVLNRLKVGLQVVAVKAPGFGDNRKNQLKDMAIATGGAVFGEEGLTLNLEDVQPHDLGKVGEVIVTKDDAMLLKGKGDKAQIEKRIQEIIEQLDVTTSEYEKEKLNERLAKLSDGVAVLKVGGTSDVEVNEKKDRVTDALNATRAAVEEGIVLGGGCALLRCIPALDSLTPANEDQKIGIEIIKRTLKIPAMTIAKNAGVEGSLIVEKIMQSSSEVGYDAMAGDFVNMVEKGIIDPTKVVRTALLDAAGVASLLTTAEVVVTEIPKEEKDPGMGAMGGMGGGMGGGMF
Regarding K422A, the “effect of a mutation on the interaction” value is recorded as “increasing interaction”.
